Source: article PMC8298602 (2021)

How the values were obtained:
[1] = molecular target: Nedd^335-455pT367 + pS448 (human, UniProt Q96PU5 335-455, S342A, phosphothreonine at 367, phosphoserine at 448); assay: AUC
[2] = molecular target: Nedd^335-455pS342 + pT367 (human, UniProt Q96PU5 335-455, S448A, phosphoserine at 342, phosphothreonine at 367); assay: AUC

B1: 14-3-3η (natural protein)
chain: MGDREQLLQRARLAEQAERYDDMASAMKAVTELNEPLSNEDRNLLSVAYKNVVGARRSSWRVISSIEQKTMADGNEKKLEKVKAYREKIEKELETVCNDVLSLLDKFLIKNCNDFQYESKVFYLKMKGDYYRYLAEVASGEKKNSVVEASEAAYKEAFEISKEQMQPTHPIRLGLALNFSVFYYEIQNAPEQACLLAKQAFDDAIAELDTLNEDSYKDSTLIMQLLRDNLTLWTSDQQDEEAGEGN
Kd [1]: 170 nM
Kd [2]: 200 nM
